Assays:
MfANGPTL3(17-170)-mmH [1] = target: T1, MfANGPTL3(17-170)-mmH (Macaca fascicularis); test: SPR Biacore, antigen captured, 25C, pH 7.2, PBSP
T1 construct: also called N-terminal coiled-coil domain of ANGPTL3 from Macaca fascicularis with myc-myc-hexahistidine tag; Monkey ANGPTL3 (17-170)-mmH
T1 chain: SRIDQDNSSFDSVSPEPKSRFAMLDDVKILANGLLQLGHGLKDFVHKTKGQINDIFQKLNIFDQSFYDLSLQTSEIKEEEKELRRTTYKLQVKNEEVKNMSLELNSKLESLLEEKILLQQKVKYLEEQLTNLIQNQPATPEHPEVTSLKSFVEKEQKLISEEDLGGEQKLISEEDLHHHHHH
Experimental: (§1) All kinetic binding experiments were performed at 25° C. or 37° C. on a BIACORE™ T200 label-free molecular interaction instrument (GE Healthcare) using a CM5 sensor chip. Briefly, an antigen capture surface was generated by covalently coupling either an anti-mouse IgG-specific antibody (anti-mFc; GE Healthcare; catalog #BR-1008-38) or an anti-pentahistidine-specific antibody (Qiagen; catalog #34660) to the surface of a CM5 sensor chip using a standard amine coupling method.

hANGPTL3(17-460)-His [2] = target: T2, hANGPTL3(17-460)-His (human, UniProt Q9Y5C1 17-460); test: SPR Biacore, antigen captured, 25C, pH 7.2, PBSP
T2 construct: Bought protein (R&D Systems); also called full-length mature human ANGPTL3 with a C-terminal decahistidine tag; Human ANGPTL3 (17-460)-His
T2 sequence: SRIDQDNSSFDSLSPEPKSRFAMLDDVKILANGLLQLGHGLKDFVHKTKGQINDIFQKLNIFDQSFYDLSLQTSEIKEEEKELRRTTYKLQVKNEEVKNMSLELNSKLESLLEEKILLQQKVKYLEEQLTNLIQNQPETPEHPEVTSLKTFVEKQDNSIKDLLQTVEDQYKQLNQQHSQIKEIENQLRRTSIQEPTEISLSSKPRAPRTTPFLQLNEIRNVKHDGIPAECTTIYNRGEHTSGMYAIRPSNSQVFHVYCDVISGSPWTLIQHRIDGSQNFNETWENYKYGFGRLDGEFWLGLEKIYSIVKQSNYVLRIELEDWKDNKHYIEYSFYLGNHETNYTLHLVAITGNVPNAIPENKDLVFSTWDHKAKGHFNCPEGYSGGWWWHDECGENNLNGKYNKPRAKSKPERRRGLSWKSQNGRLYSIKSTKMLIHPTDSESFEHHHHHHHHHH
Experimental: as §1

hANGPTL3(17-170)-His [3] = target: T3, hANGPTL3(17-170)-His (human, UniProt Q9Y5C1 17-170); test: SPR Biacore, antigen captured, 25C, pH 7.2, PBSP
T3 construct: also called N-terminal coiled-coil domain of hANGPTL3 with a C-terminal hexahistidine tag; Human ANGPTL3 (17-170)-His
T3 sequence: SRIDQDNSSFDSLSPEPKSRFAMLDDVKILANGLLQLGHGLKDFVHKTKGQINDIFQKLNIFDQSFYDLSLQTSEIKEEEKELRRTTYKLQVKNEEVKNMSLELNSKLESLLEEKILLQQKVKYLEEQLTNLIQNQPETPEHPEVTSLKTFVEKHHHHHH
Experimental: as §1

hANGPTL3(17-169)-mFc [4] = target: T4, hANGPTL3(17-169)-mFc (human); test: SPR Biacore, antigen captured, 25C, pH 7.4, HBS-EP
T4 construct: also called N-terminal coiled-coil domain of hANGPTL3 with a C-terminal mouse Fc fusion
T4 chain: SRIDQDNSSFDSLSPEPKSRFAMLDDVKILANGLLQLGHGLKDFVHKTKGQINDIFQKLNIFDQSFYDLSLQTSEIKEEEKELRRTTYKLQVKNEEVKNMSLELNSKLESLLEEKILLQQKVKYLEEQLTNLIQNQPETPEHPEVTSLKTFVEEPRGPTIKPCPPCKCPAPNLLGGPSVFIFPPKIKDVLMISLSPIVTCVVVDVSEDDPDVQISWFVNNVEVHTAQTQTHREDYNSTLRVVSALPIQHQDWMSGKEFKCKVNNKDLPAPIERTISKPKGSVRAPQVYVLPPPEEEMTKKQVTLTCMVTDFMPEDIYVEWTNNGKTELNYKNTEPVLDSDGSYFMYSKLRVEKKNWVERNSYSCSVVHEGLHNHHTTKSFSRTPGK
Experimental: as §1

hANGPTL3(17-460)-His [5] = target: T2, hANGPTL3(17-460)-His; test: SPR Biacore, antigen captured, 25C, pH 7.4, HBS-EP
Experimental: as §1

hANGPTL3(17-169)-mFc [6] = target: T4, hANGPTL3(17-169)-mFc; test: cell-based or functional assay
mANGPTL3(17-240)-His = target: T5, mANGPTL3(17-240)-His (Mus musculus, UniProt Q9R182 17-240); test: cell-based or functional assay
T5 sequence: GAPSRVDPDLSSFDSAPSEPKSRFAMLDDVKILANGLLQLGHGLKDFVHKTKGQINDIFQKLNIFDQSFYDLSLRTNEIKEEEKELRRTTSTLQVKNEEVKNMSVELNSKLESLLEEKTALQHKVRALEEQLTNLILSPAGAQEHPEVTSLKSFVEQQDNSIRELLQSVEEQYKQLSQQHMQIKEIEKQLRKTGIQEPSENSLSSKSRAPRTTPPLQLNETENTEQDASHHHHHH

MfANGPTL3(17-170)-mmH [7] = target: T1, MfANGPTL3(17-170)-mmH; test: SPR Biacore, antigen captured, 25C, pH 5.75, PBSP
Experimental: as §1

hANGPTL3(17-460)-His [8] = target: T2, hANGPTL3(17-460)-His; test: SPR Biacore, antigen captured, 25C, pH 5.75, PBSP
Experimental: as §1

hANGPTL3(17-170)-His [9] = target: T3, hANGPTL3(17-170)-His; test: SPR Biacore, antigen captured, 25C, pH 5.75, PBSP
Experimental: as §1

B1: H4H1276S (antibody, IgG4, V domains shown)
VH: EVQLVESGGGVIQPGGSLRLSCAASGFTFDDYAMNWVRQGPGKGLEWVSAISGDGGSTYYADSVKGRFTISRDNSKNSLYLQMNSLRAEDTAFFYCAKDLRNTIFGVVIPDAFDIWGQGTMVTVSS
VL: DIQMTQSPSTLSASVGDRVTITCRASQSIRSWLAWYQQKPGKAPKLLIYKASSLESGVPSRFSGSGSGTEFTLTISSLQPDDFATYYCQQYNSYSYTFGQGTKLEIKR
Kd (MfANGPTL3(17-170)-mmH [1]): 0.37 nM | koff (MfANGPTL3(17-170)-mmH [1]): 0.000538 s⁻¹ | kon (MfANGPTL3(17-170)-mmH [1]): 1.45e+06 M⁻¹ s⁻¹ | t1/2 (MfANGPTL3(17-170)-mmH [1]): 21.5 min | Kd (hANGPTL3(17-460)-His [2]): 0.67 nM | koff (hANGPTL3(17-460)-His [2]): 0.000402 s⁻¹ | kon (hANGPTL3(17-460)-His [2]): 599000 M⁻¹ s⁻¹ | t1/2 (hANGPTL3(17-460)-His [2]): 28.8 min | Kd (hANGPTL3(17-170)-His [3]): 1.09 nM | koff (hANGPTL3(17-170)-His [3]): 0.0011 s⁻¹ | kon (hANGPTL3(17-170)-His [3]): 1e+06 M⁻¹ s⁻¹ | t1/2 (hANGPTL3(17-170)-His [3]): 10.5 min | Kd (hANGPTL3(17-169)-mFc [4]): 0.659 nM | koff (hANGPTL3(17-169)-mFc [4]): 0.000383 s⁻¹ | kon (hANGPTL3(17-169)-mFc [4]): 582000 M⁻¹ s⁻¹ | t1/2 (hANGPTL3(17-169)-mFc [4]): 30 min | Kd (hANGPTL3(17-460)-His [5]): 1.35 nM | koff (hANGPTL3(17-460)-His [5]): 0.000464 s⁻¹ | kon (hANGPTL3(17-460)-His [5]): 344000 M⁻¹ s⁻¹ | t1/2 (hANGPTL3(17-460)-His [5]): 25 min | IC50, LPL bioassay, 80 nM constant hANGPTL3(17-169)-mFc (hANGPTL3(17-169)-mFc [6]): 33 nM | IC50, LPL bioassay, 500 nM constant mANGPTL3(17-240)-His (mANGPTL3(17-240)-His): 64 nM | Kd (MfANGPTL3(17-170)-mmH [7]): 21 nM | koff (MfANGPTL3(17-170)-mmH [7]): 0.00432 s⁻¹ | kon (MfANGPTL3(17-170)-mmH [7]): 206000 M⁻¹ s⁻¹ | t1/2 (MfANGPTL3(17-170)-mmH [7]): 2.7 min | Kd (hANGPTL3(17-460)-His [8]): 67.5 nM | koff (hANGPTL3(17-460)-His [8]): 0.00494 s⁻¹ | kon (hANGPTL3(17-460)-His [8]): 73200 M⁻¹ s⁻¹ | t1/2 (hANGPTL3(17-460)-His [8]): 2.3 min | Kd (hANGPTL3(17-170)-His [9]): 24 nM | koff (hANGPTL3(17-170)-His [9]): 0.00672 s⁻¹ | kon (hANGPTL3(17-170)-His [9]): 280000 M⁻¹ s⁻¹ | t1/2 (hANGPTL3(17-170)-His [9]): 1.7 min

Source: patent US20150197564A1 (Regeneron, published 2015)
